These results are taken from the nanobody polyreactivity screen of Harvey et al. (2022).

The data set is described as follows: yeast display, Sf9 membrane polyspecificity reagent, FACS + sequencing; frameworks hold sequencing errors. Summed up:
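Polyreactivity labels are assigned by the sorting gate from which each nanobody was recovered. The gates were low and high (top ~1%), set on anti-HA fluorescence for expression and streptavidin fluorescence for reagent binding. Before sorting, galactose-induced (36–48 hours) yeast display cells were stained for 1 hour at 4 °C with 10% biotinylated, detergent-solubilized Sf9 membrane reagent.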
For the sequence “QVQLVESGGGLVQAGGSLRLSCAASGSIFSGYTMGWYRQAPGKDRELVAGISYRGGSTYYADSVKGRFTISRDNAKNTVYLQMNSLKPEDTAVYYCAALYYRRGSLNYEYWGQGTQVTVSS”, the “polyreactivity (PSR sort gate)” value is recorded as “high polyreactivity”.
Take “QVQLVESGGGLVQAGGSLRLSCAASGSIFSGYTMGWYRQAPGKERELVAGISYRGGSTYYADSVKGRFTNSRDNAKNTVYLQMNSLKPEDTAVYYCAALYYRRGSLNYEYWGQGTQVTVSS”: the “polyreactivity (PSR sort gate)” value is recorded as “high polyreactivity”.
With “QVQLVESGGGLVQAGGSLRLSCAASGSIFSGYVMGWYRQAPGKERELVAAINSRAGRTYYADSVKGRFTISRDNAKNTVYLQMNSLKPEDTAVYYCNAPTSFHRGGGYWGQGTQVTVSS”, the “polyreactivity (PSR sort gate)” value is “high polyreactivity”.
“QVQLVESGGGLVQAGGSLRLSCAASGSIFSGYVMGWYRQSPGKESELDAAISYSGGSKYYADSVKGRFTISRDNAKNTVYLQMNSLKPEDTAVYFCAAPGWLSQPRYRGYDYWGQGTQVSVSS”: the “polyreactivity (PSR sort gate)” value is “high polyreactivity”.
As for “QVQLVESGGGLVQAGGSLRLSCAASGSIFSHYAMGWYRQAPGKERELVARITWGGGSTYADCVKGRFTISRDNAKNTVYLQMKSLKPEDTAVYYCAAVPVGYDSDWGYYYWGQGTQVTVSS”, the “polyreactivity (PSR sort gate)” value is given as “low polyreactivity”.
For “QVQLVESGGGLVQAGGSLRLSCAASGSIFSINAMGWYRQAPGKERELVAAINGSGGNTYYADSVKGRFTISRDNAKNTVYLQMNSLKPEDTAVYYCAAEGYSYWSFDELDYWGQGTQVTVSS”, the “polyreactivity (PSR sort gate)” value was “low polyreactivity”.
With “QVQLVESGGGLVQAGGSLRLSCAASGSIFSKNARGWYRQAPGKERELVAAISWSGDRTYYADSVKGRFTISRDNAKNTVYLQMNSLKPEDTAVYYCAADYTVKYGYWGQGTQVTVSS”, the “polyreactivity (PSR sort gate)” value is “high polyreactivity”.
With “QVQLVESGGGLVQAGGSLRLSCAASGSIFSKYAMGWYRQAPGKERELVAAITSSGGSTYYADSVKGRFTISRDNAKNTVYLQMNSLKPEDNAVYYCAAGGRSVRYNYWGQGTQVTVSS”, the “polyreactivity (PSR sort gate)” value is “high polyreactivity”.
Regarding “QVQLVESGGGLVQAGGSLRLSCAASGSIFSLYAMGWYRQAPGKERELVAAITWTGGSTYYADSVKGRFTISRDNAKNTVYLQMNSLKPEDTAVYYCDARRVVYRYYWYSAYDYWGRGTQVTVSS”, the “polyreactivity (PSR sort gate)” value is listed as “high polyreactivity”.
On to “QVQLVESGGGLVQAGGSLRLSCAASGSIFSNYAMGWYRQAPGKERELVAAITWSGDDTYYADSVKGRFTISRDNAKTTVYLQMNSLKPVDTAVYYCAAEYHGYRYNYYPYSHYFIYESWGQGTQVTVSS”, for which the “polyreactivity (PSR sort gate)” value was “high polyreactivity”.
Turning to “QVQLVESGGGLVQAGGSLRLSCAASGSIFSPNARGWYRQAPGKEREVVAGISWSGDGTYYADSVKGRFTISRDYAKNTVYLQMNSLKPEDTAVYYCAARFGRYSHRYYYWGQGTQVTVSS”, the “polyreactivity (PSR sort gate)” value is reported as “high polyreactivity”.
With “QVQLVESGGGLVQAGGSLRLSCAASGSIFSPNDMGWYRQAPGKERELVAAITSAGSTYYADSVKGRFTISRDNAKNTVYLQMNSLKPDDTAVYYCAATYISVTDYAYFPLWYGYWGQGTQVTVSS” the entry was “low polyreactivity”; with “QVQLVESGGGLVQAGGSLRLSCAASGSIFSPYAMGWYRQAPGKERELVAAISFRASTTYYADSVKGRFTISRDNAKNTVYLQMNSLKPEDTAVYYCSASALYSWFWGLYDYWGQGTQVTVSS”, “low polyreactivity”.
As for “QVQLVESGGGLVQAGGSLRLSCAASGSIFSPYAMGWYRQAPGKERELVAGISKSAGTTFYADSVKGRFTISRDNAKNTVYLQMNSLKPEDTAVYYCAADYYYPAWYLSDYWGQGTQVTVSS”, the “polyreactivity (PSR sort gate)” value is reported as “low polyreactivity”.
In the case of “QVQLVESGGGLVQAGGSLRLSCAASGSIFSQNAMGWYRQAPGKEREFVAAIRWSAGSTYYADSVKGRFTISRDNAKNTVYLQMNSLKPEDTAVYYCNAALNVSGHYPNDYWGQGTQVTVSS”, the “polyreactivity (PSR sort gate)” value is recorded as “low polyreactivity”.
Turning to “QVQLVESGGGLVQAGGSLRLSCAASGSIFSQNAMGWYRQAPGKERELVAAITSSGGNTYADSVKGRFTISRDNAKNTVYLQMNRLKPEDTAVYYCAAGHLVILNRSEYYYWGQGTQVTVSS”, the “polyreactivity (PSR sort gate)” value is reported as “low polyreactivity”.
As to “QVQLVESGGGLVQAGGSLRLSCAASGSIFSQYAMGWYRQAPGKERELVAAITYGGGSTYYADSVKGRFTISRDNAKNTVYLQMNSLKPEDTAVYYCAAGYWNDFDWGQGTQVTVSS”, the “polyreactivity (PSR sort gate)” value is given as “low polyreactivity”.
In the case of “QVQLVESGGGLVQAGGSLRLSCAASGSIFSRNAMGWYRQAPGKERELVAAITWSGGSTYYADSVKGRFTISRDNAKNTVYLQMNSLKPEDTAVYYCNAKRSSRIKQLEYDYWGQGTQVTVSS”, the “polyreactivity (PSR sort gate)” value is on record as “high polyreactivity”.
The entry for “QVQLVESGGGLVQAGGSLRLSCAASGSIFSRNAMGWYRQARGKERELVAAISWRGGSTYYADSVKGRFTISRDNAKNTGYLQMNSLKPEDTAVYYCAAVYQFIKWGDRYEYWGQGTQVTVSS” is “high polyreactivity”; for “QVQLVESGGGLVQAGGSLRLSCAASGSIFSRYAMGWYIQAPGKERELVAAISTGGGRTYYADSVKGRFTISRDNAKNTVYLKMNSLKPEDTAVYYCAAPQQQSWTYDGRYGYWGQGTQVTVSS” it is “high polyreactivity”.
Take “QVQLVESGGGLVQAGGSLRLSCAASGSIFSRYAMGWYRQAPGKERELVAAISRRGGTTYYADSVKGRFTISRDNAKNTVYLQMNSQKPVDTAVYYCAAVFVTQSFIYDYYYWGQGTQVTVSS”: the “polyreactivity (PSR sort gate)” value is given as “high polyreactivity”.
Turning to “QVQLVESGGGLVQAGGSLRLSCAASGSIFSRYAMGWYRQAPGKERELVAAITSSGGRTYYADSVKGRFTISRDNAKNTVYLQMNSLKPEDTAVYYCAAEYYYIVTYDFGYWGQGTQVTVSS”, the “polyreactivity (PSR sort gate)” value is given as “low polyreactivity”.
With “QVQLVESGGGLVQAGGSLRLSCAASGSIFSRYAMGWYRQAPGKEREVVADISQRAGSTYYADSVKGRFTISRDNAKITVYLQMNSLKPEDTAVYYCAKPEAQVGGYWGYDYWGQGTQVTVSS” the entry was “high polyreactivity”; with “QVQLVESGGGLVQAGGSLRLSCAASGSIFSSNVMGWYRQAPWKERELVAAITVRGSRTYYADSVKGRFTISRDNAKNTVYLQLNSLKPEDTAVYYCNAVARVLGSDRRLQYYYWGQGTQVTVSS”, “high polyreactivity”.
Regarding “QVQLVESGGGLVQAGGSLRLSCAASGSIFSSYAMGWYRQAPGKERELVAAISSGDSTYYADSVKGRFTISRDNAKNTVYLQMNSLKPEDTAVYYCAAPWYAWGQGTQVTVSS”, the “polyreactivity (PSR sort gate)” value is reported as “low polyreactivity”.
For “QVQLVESGGGLVQAGGSLRLSCAASGSIFSSYAMGWYRQAPGKERELVAAITSGGSTYYADSVKGRFTISRDNAKNTVYLQLFSLKPEDTAVYYCAARQVRTSKLHMGYWGQGTQVTVSS”, the “polyreactivity (PSR sort gate)” value is recorded as “low polyreactivity”.
The entry for “QVQLVESGGGLVQAGGSLRLSCAASGSIFSSYAMGWYRQAPGKERELVAAITSGGSTYYADSVKGRFTISRDNAKNTVYLQMNSLKPEDTAVYYCAAYRSYFGYDYWGQGTQVTVSS” is “low polyreactivity”.
For the sequence “QVQLVESGGGLVQAGGSLRLSCAASGSIFSSYAMGWYRQAPGKERELVASISWRSGSTYYADSVKGRFTISRDNAKNTVYLQMNSLKPEDTAVYYCATAYYRYYKYRFYYWGQGTQVTVSS”, the “polyreactivity (PSR sort gate)” value was “high polyreactivity”.
For “QVQLVESGGGLVQAGGSLRLSCAASGSIFSSYAMGWYRQAPGKEREMVAAITYSGGRTYYADSVKGRFTISRDNAKNTVYLQMNSLKPEDTAVYYCNARKYVGFWSRYDYWGQGTQVTVSS”, the “polyreactivity (PSR sort gate)” value is “high polyreactivity”.
With “QVQLVESGGGLVQAGGSLRLSCAASGSIFSSYSMGWYRQAPGKERELVAAIDGSGGSTYADSVKGRFTISRDNAKNTVYLQMNSLKPEDTAVYYCAVDSFLVYSAVRPYDYWGHGTQVTVSS” the entry was “low polyreactivity”; with “QVQLVESGGGLVQAGGSLRLSCAASGSIFSTNAMGCYIQAPGKERELVAVITGIGGITYYADSVKGRFTISRDNAKNTVYVQMNSLKPEDTAVYYCAADPISEFYWGVKDRYDYWGQGTQVTVST”, “low polyreactivity”.
Regarding “QVQLVESGGGLVQAGGSLRLSCAASGSIFSTNAMGWYRQAPGKERELVATISGADGTNYADSVKGRFTISRDNAKNTVYLQMNSLKPEDTAVYYSNAFPWPVYRGYYWGQGTQVTVSS”, the “polyreactivity (PSR sort gate)” value was “low polyreactivity”.
Regarding “QVQLVESGGGLVQAGGSLRLSCAASGSIFSTNAMGWYRQAPWKERELVAGISSDDSTYADSVKGRFTISRDNAKNTVNLQMNSLKPEDTAVYNCAAEDNWYNVGYYYRGQGTQVTVSS”, the “polyreactivity (PSR sort gate)” value is “low polyreactivity”.
Consider “QVQLVESGGGLVQAGGSLRLSCAASGSIFSTNGMGWYRQAPGKERELVAAISTGGRTYYADSVKGRFTISRDNAKNTVYLQMNSLKPEDTAVYYCAKRFGYRSTQILDYWGQGTQVTVSS”, for which the “polyreactivity (PSR sort gate)” value was “low polyreactivity”.
With “QVQLVESGGGLVQAGGSLRLSCAASGSIFSTYAMGWYRQAPGKERELVAAISKSGGSTYYADSVKGRFTISRDNAKNTVYLQMNSLKPEDTAVYYCAATRWYGYKRWGYDYWGQGTQVTVSS” the entry was “high polyreactivity”.
“QVQLVESGGGLVQAGGSLRLSCAASGSIFSTYAMGWYRQAPGKERELVAAISQGGSSTYYADSVKGRFTISRDNAKNTVYLQMNSLKPEDTAVYYCATPYSWYHRVYGYDYWGQGTQVTVSS”: the “polyreactivity (PSR sort gate)” value is listed as “high polyreactivity”.
The entry for “QVQLVESGGGLVQAGGSLRLSCAASGSIFSVYAMGWYRQAPGKERELVASITSGGRTKYADSVKGRFTISRDNAKNTVYLQMNSLKQEDTAVYYCAKDGGGLLRWYTDEYDYWGQGTQVTVSS” is “low polyreactivity”; for “QVQLVESGGGLVQAGGSLRLSCAASGSIFSVYAMGWYRQAPGKERELVATISGSAGRTYYADSVKGRFTISRDNAKNTVYLQMNSLKPEDTAVYYCAARWYKEYYWGQRTQVTVSS” it is “high polyreactivity”; for “QVQLVESGGGLVQAGGSLRLSCAASGSIFSVYARGSYRQAPGKERELVAGITRGGSTYADSVKGRFTISRDNAKNPVYLQMNSLKPEDTAVYYCNAQTRIVKDRLRSDYWGQGTQVTVSS” it is “high polyreactivity”.
Take “QVQLVESGGGLVQAGGSLRLSCAASGSIFSWYAMGWYRQAPGKERELVATITWRGGSTYYADSVKGRFTISRDNAKNTVYLQMNSLKPEDTAVYYCAARVPDPYTSYRYPPYYYWGQGTQVTVSS”: the “polyreactivity (PSR sort gate)” value is on record as “low polyreactivity”.
